Results from patent publication US20230357429A1.
Residue numbers refer to the chain shown, from its start. Names and notes keep the numbering of the source. Each block holds one binder with its values, some of them ahead of it.

Key:
Settings in all cases: remark: other sources report otherwise
[1] = biological target: T1, Human TROP2 ECD (31-274 AA), biotinylated (human), P09758; test: ELISA: biotinylated TROP2 captured on neutravidin plate, Fab titrated, HRP secondary antibody
T1 chain: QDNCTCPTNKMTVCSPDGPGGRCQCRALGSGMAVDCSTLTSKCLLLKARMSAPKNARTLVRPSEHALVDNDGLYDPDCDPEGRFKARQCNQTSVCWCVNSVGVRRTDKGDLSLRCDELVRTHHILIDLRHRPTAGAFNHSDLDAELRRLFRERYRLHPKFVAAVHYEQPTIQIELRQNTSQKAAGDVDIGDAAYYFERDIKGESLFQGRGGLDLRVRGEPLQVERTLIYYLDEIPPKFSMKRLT

[2] = biological target: T1, Human TROP2 ECD (31-274 AA), …; test: ELISA, biotinylated TROP2 ECD on neutravidin plate (BLI cell of the same column: low binding); ELISA: no half-maximal signal up to 1000 nM Fab
[3] = biological target: T1, Human TROP2 ECD (31-274 AA), …; test: ELISA, biotinylated TROP2 ECD on neutravidin plate, Fab titrated

EC50 [1]: > 1000 nM
EC50 [2]: > 1000 nM
EC50 [3]: > 1000 nM
B1: TBD-4 (anti-TROP2 Fab, LC H91A) (Fab)
light: DIQLTQSPSSLSASVGDRVSITCKASQDVSIAVAWYQQKPGKAPKLLIYSASYRYTGVPDRFSGSGSGTDFTLTISSLQPEDFAVYYCQQAYITPLTFGAGTKVEIKRTVAAPSVFIFPPSDEQLKSGTASVVCLLNNFYPREAKVQWKVDNALQSGNSQESVTEQDSKDSTYSLSSTLTLSKADYEKHKVYACEVTHQGLSSPVTKSFNRGEC
heavy: QVQLQQSGSELKKPGASVKVSCKASGYTFTNYGMNWVKQAPGQGLKWMGWINTYTGEPTYTDDFKGRFAFSLDTSVSTAYLQISSLKADDTAVYFCARGGFGSSYWYFDVWGQGSLVTVSSASTKGPSVFPLAPSSKSTSGGTAALGCLVKDYFPEPVTVSWNSGALTSGVHTFPAVLQSSGLYSLSSVVTVPSSSLGTQTYICNVNHKPSNTKVDKKVEPKSC
modifications: here or on the partner: biotinylated (site not stated)

EC50 [1]: > 1000 nM
EC50 [2]: > 1000 nM
EC50 [3]: > 1000 nM
B2: TBD-5 (anti-TROP2 Fab, LC Y92A) (Fab)
light: B1 light with A91H, Y92A
heavy: B1 heavy
modifications: here or on the partner: biotinylated (site not stated)
